One molecule from US9951373B2, “Oplophorus-derived luciferases, novel coelenterazine substrates, and methods of use” (Promega Corporation, priority 2010, dated 2018) can be followed below.

Experiment [1] addresses T1, caspase-3 (Homo sapiens, UniProt P42574).
T1 sequence (P42574 29-175 limits assumed): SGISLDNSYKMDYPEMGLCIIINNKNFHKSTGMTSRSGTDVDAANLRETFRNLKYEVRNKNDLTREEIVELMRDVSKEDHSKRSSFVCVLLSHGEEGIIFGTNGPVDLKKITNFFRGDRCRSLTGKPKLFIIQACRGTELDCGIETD
T1 sequence (P42574 176-277 limits assumed): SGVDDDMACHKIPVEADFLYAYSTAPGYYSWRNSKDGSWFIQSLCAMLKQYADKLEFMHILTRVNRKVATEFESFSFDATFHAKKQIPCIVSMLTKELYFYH
The experiment is described as follows: Bioluminescent caspase-3 assay with L27V variant. Format: biochemical. To be noted: luminescence, 3 hrs room temperature. The procedure: (§1) 2. The L27V variant was used in a bioluminescent assay using a pro-coelenterazine substrate comprising the DEVD caspase-3 cleavage sequence. Purified caspase-3 enzyme (1 mg/mL) in 100 mM MES pH 6 (50 μL) was mixed with 227 nM L27V02 variant and 47 μM PBI-3741 (z-DEVD-coelenterazine-h) in assay buffer (50 μL). Reactions were incubated for 3 hrs at room temperature, and luminescence detected as previously described. The assay with the L27V variant was compared to a firefly luciferase version of the assay, CASPASE-GLO® 3/7-Assay system (Caspase-Glo; Promega Corp.).

Experiment [2] concerns caspase-3. The experiment is described as follows: Bioluminescent caspase-3 assay with L27V variant. The experiment is classed as biochemical. As to conditions: luminescence, 3 hrs room temperature. The procedure: as §1

B1: L27V: 9B8 opt+K33N variant with L27V, T39T, K43R, Y68D (SEQ ID NO: 89) (protein)
chain: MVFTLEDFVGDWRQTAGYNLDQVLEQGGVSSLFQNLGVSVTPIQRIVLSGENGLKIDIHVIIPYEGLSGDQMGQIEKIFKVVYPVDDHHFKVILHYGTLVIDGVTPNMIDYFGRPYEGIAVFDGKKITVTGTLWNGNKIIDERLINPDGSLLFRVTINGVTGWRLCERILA
For the molecule B1, the “(+) caspase” value in experiment [1] is on record as 11,532. For the same molecule, the “(−) caspase” value in experiment [2] was 803.
